Values of other authors, collected in paper PMC5567442.

Molecular target: Kv1.3 (UniProt P22001)
Sequence of UniProt P22001 (P22001 whole entry): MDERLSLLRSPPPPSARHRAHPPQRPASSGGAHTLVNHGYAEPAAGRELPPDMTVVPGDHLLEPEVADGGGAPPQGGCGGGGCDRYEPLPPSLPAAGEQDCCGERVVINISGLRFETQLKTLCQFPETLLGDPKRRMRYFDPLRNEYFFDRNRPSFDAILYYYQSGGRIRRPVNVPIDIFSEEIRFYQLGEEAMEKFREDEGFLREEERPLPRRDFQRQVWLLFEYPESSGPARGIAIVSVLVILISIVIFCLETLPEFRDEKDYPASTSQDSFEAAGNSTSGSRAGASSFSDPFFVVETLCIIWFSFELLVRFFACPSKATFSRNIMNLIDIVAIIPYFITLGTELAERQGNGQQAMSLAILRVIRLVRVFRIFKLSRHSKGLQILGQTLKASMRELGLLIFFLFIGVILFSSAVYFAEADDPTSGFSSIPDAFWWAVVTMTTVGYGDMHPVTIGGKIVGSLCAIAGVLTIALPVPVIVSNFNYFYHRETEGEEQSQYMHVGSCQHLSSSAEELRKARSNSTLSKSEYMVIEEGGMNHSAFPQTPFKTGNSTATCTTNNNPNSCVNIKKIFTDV

For Agitoxin-2 (from UniProt P46111), the Kd is given as 0.177 nM.
